Measured values: patent publication US11136407

Legend:
[1] = target: CD9-3×FLAG-rabbitFc-Sortase-biotin (human; rabbit); assay: SPR, 1:1 model
[2] = target: CD9-3×FLAG-rabbitFc-Sortase-biotin (human; rabbit); assay: SPR; rests on the kd set to 0.1*10^-5; unit from the legend paragraph 216
[3] = target: CD9-3×FLAG-rabbitFc-Sortase-biotin (human; rabbit); assay: SPR; * legend: dissociation too low for accurate fitting, a value of 0.1*10^-5 is used
[4] = target: CD9-3×FLAG-rabbitFc-Sortase-biotin (human; rabbit); assay: SPR (IBIS MX96) on CD9 chip
[5] = target: CD9-3×FLAG-rabbitFc-Sortase-biotin (human; rabbit); assay: SPR (IBIS MX96), antibody injected over CD9-3×FLAG-rabbitFc-Sortase-biotin chip, 1:1 model
[6] = target: CD9-3×FLAG-rabbitFc-Sortase-biotin (human; rabbit); assay: ELISA, biotinylated CD9-EC2-Fc on streptavidin plate, goat anti-mouse HRP
[7] = target: CD9-3×FLAG-rabbitFc-Sortase-biotin (human; rabbit); assay: SPR, 1:1 model; unit from the legend paragraph 216

mouse anti-CD9 antibody clone HI9a
kon [1]: 430000 M⁻¹ s⁻¹ | Kd [2]: 0.00233 nM | koff [3]: < 1e-06 s⁻¹ | fold affinity against AT14-012 [4]: 19000 fold | Kd [5]: 0.00233 nM | EC50 [6]: 0.02 µg/mL

mouse anti-CD9 antibody clone ALB6
Kd [7]: 0.145 nM | koff [1]: 2.16e-05 s⁻¹ | kon [1]: 151000 M⁻¹ s⁻¹ | fold dissociation against HI9a [4]: 22 fold | Kd [5]: 0.145 nM | EC50 [6]: 0.013 µg/mL
